# US20230220047A1 (NORWEGIAN UNIVERSITY OF SCIENCE AND TECHNOLOGY NTNU, published 2023)
# Ends that are not written are not given here.
# B1: Pep7-Penetratin-biotin (C-terminally biotinylated P7-Pen) (peptide)
# peptide: ITVYASVTLTGRQIKIWFQNRRMKWKK-biotin
# modifications: not fully specified (N-terminus); also: biotin attachment not given here
# notes: Custom synthesis by GenScript; immobilised on NeutrAvidin agarose; also called P7-Pen peptide; biotinylated P7 peptides
# B2: SLAMF1 (human, no tag stated; overexpressed in HEK293T cells or endogenous in primary human macrophages) (receptor, UniProt Q13291 21-335, looked up)
# chain: ASYGTGGRMMNCPKILRQLGSKVLLPLTYERINKSMNKSIHIVVTMAKSLENSVENKIVSLDPSEAGPPRYLGDRYKFYLENLTLGIRESRKEDEGWYLMTLEKNVSVQRFCLQLRLYEQVSTPEIKVLNKTQENGTCTLILGCTVEKGDHVAYSWSEKAGTHPLNPANSSHLLSLTLGPQHADNIYICTVSNPISNNSQTFSPWPGCRTDPSETKPWAVYAGLLGGVIMILIMVVILQLRRRGKTNHYQTTVEKKSLTIYAQVQKPGPLQKKLDSFPAQDPCTTIYVAATEPVPESVQETNSITVYASVTLPES
# notes: Used for SLAMF1 in the TRAM^Flag and Mal^Flag co-precipitations (no tag stated there) and for endogenous SLAMF1 precipitated with anti-SLAMF1 mAb E-11; also called SLAMF1 wt; SLAMF1 protein
# Key:
# [1] = molecular target: murine TRAM protein (overexpressed in HEK 293T cells) (murine, UniProt Q8BJQ4 2-232, limits assumed); test: C-terminally biotinylated peptide on Neutravidin agarose, lysates of HEK 293T cells overexpressing TRAM
# Method: (§1) Immunoprecipitations with the biotinylated peptides Penetratin-biotin and Pep7-Penetratin-biotin (synthesised by custom order by GenScript) were performed by coating NeutrAvidin® Agarose Resin (Thermo Scientific) with peptide by incubating 40 μl 50% agarose slurry with 10 μl 2 mM peptides in 300 μl lysis buffer (for one precipitation reaction) (300 mM NaCl, 50 mM TrisHCl (pH 8.0), 1 mM EDTA, 1% Triton X100). Beads were washed 3 times with lysis buffer to remove unbound peptides before applying cellular extracts. Cell lysis was performed in the same lysis buffer, both for HEK293T cells and primary human macrophages. Precipitations were carried out by rotation at 4° C. for 30′-1 h, followed by four washes with lysis buffer. Agarose resin with precipitated protein complexes was heated in loading buffer 1×NuPAGE® LDS Sample Buffer (Thermo Fisher Scientific) containing 20 mM DTT and analysed by Western blotting.
# (§2) Murine disease models are the most accessible and widely used pre-clinical model for testing new drugs. […] To test the potential interaction of the P7 peptide with murine TRAM vs. human TRAM protein, we performed precipitations of C-terminally biotinylated Pen or P7-Pen peptides.
# [2] = molecular target: T1, human TRAM (endogenous in primary human macrophages, or overexpressed in HEK 293T cells) (human, UniProt Q86XR7 2-235, limits assumed); test: as above
# T1 construct: also called TICAM2
# Method: as §1, §2
# [3] = molecular target: T2, IRAK4 (endogenous, human) (human, UniProt Q9NWZ3 1-460); test: biotinylated peptide on NeutrAvidin beads, lysates of primary human macrophages, Western blot; may be indirect, within a complex
# T2 construct: also called interleukin 1 receptor-associated kinase 4
# T2 sequence (looked up): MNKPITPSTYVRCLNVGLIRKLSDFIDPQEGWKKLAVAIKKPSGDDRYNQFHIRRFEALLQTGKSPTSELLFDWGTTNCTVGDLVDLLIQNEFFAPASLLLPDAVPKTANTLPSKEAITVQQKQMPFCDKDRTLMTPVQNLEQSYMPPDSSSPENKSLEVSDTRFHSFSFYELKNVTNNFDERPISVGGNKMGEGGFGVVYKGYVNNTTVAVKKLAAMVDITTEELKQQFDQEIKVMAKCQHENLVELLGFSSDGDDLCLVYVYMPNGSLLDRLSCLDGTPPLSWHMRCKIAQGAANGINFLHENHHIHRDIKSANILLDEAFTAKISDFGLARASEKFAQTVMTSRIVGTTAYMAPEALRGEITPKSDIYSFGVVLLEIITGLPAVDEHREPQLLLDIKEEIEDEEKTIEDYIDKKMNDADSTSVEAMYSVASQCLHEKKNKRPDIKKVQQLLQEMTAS
# Method: (§3) Precipitations were performed using biotinylated peptides on lysates of primary human macrophages stimulated with LPS (100 ng/ml) for 15, 30 or 60 min and unstimulated cells (A), and stimulated with LPS for 30 or 60 min, or CL075/TLR8 ligand for 15 or 30 min (B).
# as §1
# (§4) To look for interactions between P7 and proteins in the Myddosome complex, biotinylated P7 peptides were pre-incubated with lysates of primary human macrophages (unstimulated and stimulated by LPS or CL075) and NeutrAvidin beads, followed by Western blot analysis of precipitates (FIG. 26). […] Upon stimulation with LPS, the complex of P7-interacting proteins attracted TRAF6 and TAK1 (FIG. 26A).
# Mal (endogenous, human) = molecular target: T3, Mal (endogenous, human) (human, UniProt P58753 1-221, limits assumed); test: as above
# T3 construct: also called Mal/TIRAP; MyD88-adaptor-like protein
# Method: as §3, §1, §4
# [4] = molecular target: T4, IRAK1 (endogenous, human) (human, UniProt P51617 1-712, limits assumed); test: as above
# T4 construct: SLAMF1 co-precipitated the ubiquitinated/phosphorylated form after LPS stimulation; also called interleukin 1 receptor-associated kinase 1; modified IRAK1
# Method: as §3, §1, §4
# [5] = molecular target: T5, MyD88 (endogenous, human) (human, UniProt Q99836 1-296); test: as above
# T5 construct: also called Myeloid Differentiation primary response protein 88
# Method: as §3, §1, §4
# [6] = molecular target: T6, TRAF6 (endogenous, human) (human, UniProt Q9Y4K3 1-522); test: biotinylated peptide on NeutrAvidin beads, lysates of LPS-stimulated primary human macrophages, Western blot; within a complex
# T6 sequence (looked up): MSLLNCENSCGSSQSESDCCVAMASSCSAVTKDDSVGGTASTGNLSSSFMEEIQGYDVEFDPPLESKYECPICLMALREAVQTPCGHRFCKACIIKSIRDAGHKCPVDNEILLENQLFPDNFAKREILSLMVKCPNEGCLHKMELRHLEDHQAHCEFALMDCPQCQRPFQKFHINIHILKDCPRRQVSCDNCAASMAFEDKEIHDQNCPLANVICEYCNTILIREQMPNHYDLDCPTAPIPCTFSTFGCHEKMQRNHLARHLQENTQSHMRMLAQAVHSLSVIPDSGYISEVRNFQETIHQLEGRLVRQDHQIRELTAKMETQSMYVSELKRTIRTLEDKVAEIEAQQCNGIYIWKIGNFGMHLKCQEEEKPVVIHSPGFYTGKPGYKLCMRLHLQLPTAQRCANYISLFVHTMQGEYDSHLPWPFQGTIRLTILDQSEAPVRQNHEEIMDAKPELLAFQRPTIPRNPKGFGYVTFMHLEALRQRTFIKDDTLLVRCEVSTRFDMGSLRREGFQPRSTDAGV
# Method: as §3
# as §1, with “blotting. […]” for “blotting.”
# [7] = molecular target: T7, IRAK2 (endogenous, human) (human, UniProt O43187 1-625); test: endogenous co-precipitation with anti-SLAMF1 mAb (E-11) on magnetic beads from primary human macrophages, Western blot
# T7 sequence (looked up): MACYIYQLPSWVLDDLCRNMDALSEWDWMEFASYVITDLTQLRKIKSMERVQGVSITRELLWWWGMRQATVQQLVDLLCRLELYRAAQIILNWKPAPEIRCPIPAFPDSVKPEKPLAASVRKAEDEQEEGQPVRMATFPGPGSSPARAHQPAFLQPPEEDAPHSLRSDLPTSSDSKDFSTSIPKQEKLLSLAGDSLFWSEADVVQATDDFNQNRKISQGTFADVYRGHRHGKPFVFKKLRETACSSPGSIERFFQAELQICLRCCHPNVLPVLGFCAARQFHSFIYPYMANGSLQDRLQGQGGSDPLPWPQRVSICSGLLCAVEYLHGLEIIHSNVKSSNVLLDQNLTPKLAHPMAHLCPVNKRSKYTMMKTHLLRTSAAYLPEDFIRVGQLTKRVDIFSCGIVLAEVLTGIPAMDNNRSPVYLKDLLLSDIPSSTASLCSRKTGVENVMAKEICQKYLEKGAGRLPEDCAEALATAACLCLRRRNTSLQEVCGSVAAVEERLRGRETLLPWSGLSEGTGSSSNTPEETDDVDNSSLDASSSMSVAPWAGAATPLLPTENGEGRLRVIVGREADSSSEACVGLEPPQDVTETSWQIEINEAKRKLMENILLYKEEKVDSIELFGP
# Method: The SLAMF1 and TRAM interaction was used as a positive control. Primary human macrophages were pre-treated with 15 μM peptides for 30 min, stimulated with LPS for another 15′, 30′ or 1 h, lysed and used for co-precipitation with anti-SLAMF1 mouse mAbs (E-11) covalently bound to magnetic beads, followed by Western blot analysis. Proteins in lysates were analysed as input control.
# Indeed, a potential P7-Pen interaction motif is located within the protein kinase domain of IRAK4. Alignment of IRAKs with the TRAM-derived sequence that is targeted by the peptide identified sequences in IRAK1 and IRAK4 that are highly similar to the P7-interacting motif in TRAM/TICAM2 (not shown). […] IRAK4 also co-precipitated with GST-SLAMF1ct in GST pull down assays from lysates of primary human macrophages (data not shown).
# Chain of murine TRAM protein (overexpressed in HEK 293T cells) (Q8BJQ4 2-232 limits assumed): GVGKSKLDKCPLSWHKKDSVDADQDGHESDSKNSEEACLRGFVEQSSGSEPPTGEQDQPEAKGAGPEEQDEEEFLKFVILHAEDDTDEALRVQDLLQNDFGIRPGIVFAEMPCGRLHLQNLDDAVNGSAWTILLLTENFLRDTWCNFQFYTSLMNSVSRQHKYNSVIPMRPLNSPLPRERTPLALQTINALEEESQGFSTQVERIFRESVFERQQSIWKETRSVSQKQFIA
# T3 sequence (P58753 whole entry): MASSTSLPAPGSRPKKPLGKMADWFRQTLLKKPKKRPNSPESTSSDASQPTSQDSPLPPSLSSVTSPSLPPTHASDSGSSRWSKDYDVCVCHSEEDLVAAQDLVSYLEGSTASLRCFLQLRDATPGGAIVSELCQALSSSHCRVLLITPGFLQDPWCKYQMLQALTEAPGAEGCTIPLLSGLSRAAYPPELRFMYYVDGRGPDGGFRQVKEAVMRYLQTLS
# T4 sequence (P51617 whole entry): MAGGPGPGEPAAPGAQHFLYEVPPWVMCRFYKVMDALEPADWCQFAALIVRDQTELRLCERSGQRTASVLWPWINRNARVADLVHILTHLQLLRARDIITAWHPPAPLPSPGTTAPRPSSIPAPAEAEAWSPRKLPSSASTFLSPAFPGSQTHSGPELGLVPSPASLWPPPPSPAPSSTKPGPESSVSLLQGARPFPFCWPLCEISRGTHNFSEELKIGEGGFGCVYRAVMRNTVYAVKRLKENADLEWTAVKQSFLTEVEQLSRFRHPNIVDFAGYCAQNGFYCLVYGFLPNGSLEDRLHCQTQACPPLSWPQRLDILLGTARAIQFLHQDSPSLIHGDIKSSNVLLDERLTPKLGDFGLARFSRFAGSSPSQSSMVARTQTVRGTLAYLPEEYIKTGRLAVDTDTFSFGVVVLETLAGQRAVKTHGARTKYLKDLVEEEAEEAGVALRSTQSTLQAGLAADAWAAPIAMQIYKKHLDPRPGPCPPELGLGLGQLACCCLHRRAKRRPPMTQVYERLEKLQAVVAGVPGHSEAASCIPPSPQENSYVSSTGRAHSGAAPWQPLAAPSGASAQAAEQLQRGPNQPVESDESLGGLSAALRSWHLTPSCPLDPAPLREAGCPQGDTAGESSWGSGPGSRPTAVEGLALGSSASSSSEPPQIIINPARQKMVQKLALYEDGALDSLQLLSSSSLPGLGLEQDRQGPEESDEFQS
# T1 sequence (Q86XR7 2-235 limits assumed): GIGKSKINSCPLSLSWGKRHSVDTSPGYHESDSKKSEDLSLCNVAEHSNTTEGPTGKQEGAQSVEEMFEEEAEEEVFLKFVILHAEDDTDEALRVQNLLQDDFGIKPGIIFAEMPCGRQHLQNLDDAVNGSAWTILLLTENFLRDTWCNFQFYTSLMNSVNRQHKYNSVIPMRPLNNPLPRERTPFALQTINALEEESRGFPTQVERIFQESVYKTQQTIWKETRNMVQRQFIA
# T5 sequence (Q99836 whole entry): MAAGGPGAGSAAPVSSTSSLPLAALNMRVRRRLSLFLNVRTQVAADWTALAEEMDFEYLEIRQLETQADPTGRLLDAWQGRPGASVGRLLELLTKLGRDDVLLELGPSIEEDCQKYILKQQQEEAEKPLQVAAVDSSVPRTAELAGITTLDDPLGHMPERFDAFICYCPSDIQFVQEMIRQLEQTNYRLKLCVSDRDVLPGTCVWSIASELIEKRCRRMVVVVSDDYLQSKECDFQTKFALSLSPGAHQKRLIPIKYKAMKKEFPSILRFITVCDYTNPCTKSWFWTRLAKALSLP
Binder,binding result [1],binding result [2],binding result [3],"binding result (Mal (endogenous, human))",binding result [4],binding result [5],binding result [6],binding result [7]
B1,binds,binds,binds,binds,binds,binds,binds,–
B2,–,–,–,–,–,–,–,no binding
